Patent US20200123239A1 (PROTHENA BIOSCIENCES, published 2020)

T1: tau peptide fragment, residues 24-44 of SEQ ID NO: 1 (human)
T1 construct: Proteolytic fragment (trypsin digest) of rTau, precipitated with 16B5 and identified by MALDI-TOF/TOF
T1 peptide: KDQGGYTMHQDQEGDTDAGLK

T2: tau peptide fragment, residues 25-44 of SEQ ID NO: 1 (human)
T2 construct: Proteolytic fragment (LysC and trypsin digests) of rTau, precipitated with 16B5 and identified by MALDI-TOF/TOF
T2 peptide: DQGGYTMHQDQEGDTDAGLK


Experiments:
[1] = molecular target: recombinant purified hTau-P301L (human) (UniProt P10636); assay: SPR (Biacore T200), antibody captured on anti-human or anti-mouse antibody, hTau-P301L as analyte
[2] = molecular target: T1, tau peptide fragment, residues 24-44 of …; assay: precipitation of digest fragments with 16B5, HPLC, MALDI-TOF/TOF (trypsin digest)
Experimental: (§1) The human tau sequence with 4 microtubule binding repeats and no N-terminal inserts, and containing a P301L mutation (rTau), was expressed in E. coli and purified. […] Enzymatic digests of 200 ug of tau were carried out with one of four different proteases: trypsin (which cleaves at the carboxyl end of arginine and lysine), chymotrypsin (which primarily cleaves at the carboxyl end of tyrosine, tryptophan, phenylalanine and leucine), LysC (which cleaves at the carboxyl end of lysine), or GluC (which cleaves after glutamate residues and rarely after aspartate residues). All proteases were obtained from Thermo Scientific, and digests were performed for 16 h at 37° C. […] Precipitates were thoroughly washed in PBS containing 300 mM NaCl and 0.5% NP-40, then eluted with 1M NaCl in 100 mM glycine, pH 2.8. Eluates were dried under vacuum and resuspended in 0.1% trifluoroacetic acid (TFA). […] Peak fractions were collected, dried and resuspended in distilled water. Peptide masses and identities were determined by MALDI-TOF/TOF.

[3] = molecular target: T3, Δ25-44 deletion mutant of tau (rTau) (human, UniProt P10636 1-758); assay: Western blot of bacterial lysates
T3 construct: Deletion mutagenesis of rTau; Tested as clarified bacterial lysate on Western blots; also called A25-44
Experimental: (§2) To control for sample loading, Tau46, an antibody with specificity for the C-terminal region of tau (C-terminal epitope), was used to stain duplicate blots. Both antibodies were used at a concentration of 0.2 μg/mL. Images were captured using a Licor Odyssey fluorescent scanner. The following deletion mutants of tau were made and analyzed in this manner: Δ5-24, Δ23-32, Δ25-44, Δ30-39, and Δ37-46.

[4] = molecular target: T4, Δ30-39 deletion mutant of tau (rTau) (human, UniProt P10636 1-758); assay: Western blot of bacterial lysates
T4 construct: Deletion mutagenesis of rTau; Tested as clarified bacterial lysate on Western blots; also called A30-39
Experimental: as §2

[5] = molecular target: T2, tau peptide fragment, residues 25-44 of …; assay: precipitation of digest fragments with 16B5, HPLC, MALDI-TOF/TOF (LysC and trypsin digests)
Experimental: as §1

[6] = molecular target: T5, human tau with 4 microtubule binding repeats and no N-terminal inserts, containing a P301L mutation (rTau) (human, UniProt P10636 2-758); assay: Western blot of bacterial lysate, stained with 16B5 at 0.2 ug/mL
T5 construct: Expressed in E. coli and purified; also called full-length Tau; wild-type Tau (WT) on the blots
Experimental: as §2

[7] = molecular target: T6, Δ5-24 deletion mutant of tau (rTau) (human, UniProt P10636-6 1-383); assay: as above
T6 construct: Deletion mutagenesis of rTau; Tested as clarified bacterial lysate on Western blots; also called A5-24
Experimental: as §2

[8] = molecular target: T7, Δ23-32 deletion mutant of tau (rTau) (human, UniProt P10636 1-758); assay: Western blot of bacterial lysates, 16B5 at 0.2 µg/mL
T7 construct: Deletion mutagenesis of rTau; Tested as clarified bacterial lysate on Western blots; also called A23-32
T7 sequence (P10636 other isoform, or with tags, fused parts or gaps mutant): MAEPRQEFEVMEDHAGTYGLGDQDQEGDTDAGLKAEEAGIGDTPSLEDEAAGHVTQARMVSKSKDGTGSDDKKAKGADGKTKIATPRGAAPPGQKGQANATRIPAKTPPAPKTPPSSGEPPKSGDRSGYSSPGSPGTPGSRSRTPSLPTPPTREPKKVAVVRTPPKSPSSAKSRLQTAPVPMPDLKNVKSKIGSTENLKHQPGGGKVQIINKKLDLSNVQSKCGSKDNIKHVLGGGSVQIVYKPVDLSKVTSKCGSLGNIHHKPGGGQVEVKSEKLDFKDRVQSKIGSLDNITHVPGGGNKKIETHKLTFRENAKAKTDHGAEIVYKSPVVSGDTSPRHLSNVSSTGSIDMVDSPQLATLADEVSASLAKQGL
Experimental: as §2

recombinant purified hTau-P301L (human), sequence (P10636 other isoform, or with tags, fused parts or gaps P301L P301L): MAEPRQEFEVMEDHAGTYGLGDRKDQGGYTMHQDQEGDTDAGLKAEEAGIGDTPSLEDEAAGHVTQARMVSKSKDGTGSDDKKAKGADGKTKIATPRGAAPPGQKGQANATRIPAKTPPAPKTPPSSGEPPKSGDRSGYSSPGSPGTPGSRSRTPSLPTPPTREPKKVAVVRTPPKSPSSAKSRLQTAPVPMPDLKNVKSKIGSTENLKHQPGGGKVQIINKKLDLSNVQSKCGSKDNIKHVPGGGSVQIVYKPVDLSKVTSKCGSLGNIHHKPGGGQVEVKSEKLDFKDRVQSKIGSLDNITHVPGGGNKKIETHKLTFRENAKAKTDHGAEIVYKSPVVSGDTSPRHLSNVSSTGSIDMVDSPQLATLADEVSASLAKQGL
T3 sequence (P10636 other isoform, or with tags, fused parts or gaps mutant): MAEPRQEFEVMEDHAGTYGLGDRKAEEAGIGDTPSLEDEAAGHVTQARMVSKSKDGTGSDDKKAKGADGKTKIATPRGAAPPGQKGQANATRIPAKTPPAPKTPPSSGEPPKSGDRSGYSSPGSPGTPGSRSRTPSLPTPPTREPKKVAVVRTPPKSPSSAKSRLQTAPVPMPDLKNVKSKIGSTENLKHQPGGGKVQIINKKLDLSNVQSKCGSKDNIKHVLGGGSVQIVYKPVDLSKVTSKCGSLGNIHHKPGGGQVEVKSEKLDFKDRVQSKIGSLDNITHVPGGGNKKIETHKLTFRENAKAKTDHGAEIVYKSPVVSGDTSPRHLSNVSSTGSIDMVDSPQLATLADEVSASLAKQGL
T4 sequence (P10636 other isoform, or with tags, fused parts or gaps mutant): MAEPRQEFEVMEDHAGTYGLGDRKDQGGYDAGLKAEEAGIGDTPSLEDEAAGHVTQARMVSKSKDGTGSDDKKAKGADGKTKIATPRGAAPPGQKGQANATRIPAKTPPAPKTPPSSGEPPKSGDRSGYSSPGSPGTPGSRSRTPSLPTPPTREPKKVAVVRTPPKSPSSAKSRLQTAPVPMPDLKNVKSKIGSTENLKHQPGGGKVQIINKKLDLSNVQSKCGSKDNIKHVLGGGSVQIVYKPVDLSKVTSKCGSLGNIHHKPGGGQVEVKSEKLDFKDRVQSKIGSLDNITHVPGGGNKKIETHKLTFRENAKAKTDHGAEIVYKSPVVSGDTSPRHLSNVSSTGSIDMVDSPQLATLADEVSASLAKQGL
T6 sequence (P10636 other isoform, or with tags, fused parts or gaps mutant): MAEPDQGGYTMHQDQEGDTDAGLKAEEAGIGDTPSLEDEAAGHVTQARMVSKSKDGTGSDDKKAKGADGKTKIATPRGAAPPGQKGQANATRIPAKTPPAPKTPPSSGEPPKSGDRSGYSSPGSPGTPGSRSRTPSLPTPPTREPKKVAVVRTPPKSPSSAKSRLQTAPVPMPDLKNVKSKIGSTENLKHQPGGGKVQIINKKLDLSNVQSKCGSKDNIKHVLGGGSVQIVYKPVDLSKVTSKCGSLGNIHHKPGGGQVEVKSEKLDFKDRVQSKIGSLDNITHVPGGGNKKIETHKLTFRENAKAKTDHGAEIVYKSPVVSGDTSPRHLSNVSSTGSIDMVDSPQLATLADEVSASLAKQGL
T5 sequence (P10636 other isoform, or with tags, fused parts or gaps P301L P301L limits assumed): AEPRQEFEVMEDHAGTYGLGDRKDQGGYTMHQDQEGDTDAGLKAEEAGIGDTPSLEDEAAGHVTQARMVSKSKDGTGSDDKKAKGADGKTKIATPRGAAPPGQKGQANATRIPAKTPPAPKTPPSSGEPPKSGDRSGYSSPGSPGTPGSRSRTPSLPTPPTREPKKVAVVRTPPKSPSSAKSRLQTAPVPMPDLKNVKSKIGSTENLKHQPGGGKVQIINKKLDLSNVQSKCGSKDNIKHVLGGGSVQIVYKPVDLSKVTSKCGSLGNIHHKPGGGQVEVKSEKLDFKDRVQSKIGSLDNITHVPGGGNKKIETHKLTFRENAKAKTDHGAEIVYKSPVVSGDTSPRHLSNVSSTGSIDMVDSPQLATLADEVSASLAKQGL

Binder	Kd [1] [nM]	koff [1] [s⁻¹]	kon [1] [M⁻¹ s⁻¹]	binding result [2]	binding result [3]	binding result [4]	binding result [5]	binding result [6]	binding result [7]	binding result [8]
humanized 16B5 antibody, version H1L1 (antibody, V domains shown) VH: QVQLVQSGSELKKPGASVKVSCKASGYTFTYHGMDWVRQAPGQGLEWMGWINTYSGVPTYADDFKGRFVFSLDTSVSTAYLQISSLKAEDTAVYFCARRRDFTMDFWGQGTTVTVSS VL: NIVLTQSPDSLAVSLGERATINCKSSQSLLNSRTRKNYLAWFQQKPGQPPKLLIYWASTRESGVPDRFSGSGSGTDFTLTISSLQAEDVAVYYCKQSYTLRTFGGGTKVEIKR	0.617	0.00215	3.5e+06							
humanized 16B5 antibody, version H1L2 (antibody, V domains shown) VH: QVQLVQSGSELKKPGASVKVSCKASGYTFTYHGMDWVRQAPGQGLEWMGWINTYSGVPTYADDFKGRFVFSLDTSVSTAYLQISSLKAEDTAVYFCARRRDFTMDFWGQGTTVTVSS VL: NIVLTQSPDSLAVSLGERATINCKSSQSLLNSRTRKNYLAWFQQKPGQSPKLLIYWASTRESGVPDRFSGSGSGTDFTLTISSLQAEDVAVYYCKQSYTLRTFGGGTKVEIKR	0.286	0.00342	1.2e+07							
humanized 16B5 antibody, version H1L3 (antibody, V domains shown) VH: QVQLVQSGSELKKPGASVKVSCKASGYTFTYHGMDWVRQAPGQGLEWMGWINTYSGVPTYADDFKGRFVFSLDTSVSTAYLQISSLKAEDTAVYFCARRRDFTMDFWGQGTTVTVSS VL: DIVLTQSPDSLAVSLGERATINCKSSQSLLNSRTRKNYLAWFQQKPGQSPKLLIYWASTRESGVPDRFSGSGSGTDFTLTISSLQAEDVAVYYCKQSYTLRTFGGGTKVEIKR	0.32	0.00398	1.25e+07							
murine monoclonal anti-tau antibody 16B5 (antibody, V domains shown, Mouse monoclonal antibody; the isotype control used alongside it is IgG1; also called 16B5 monoclonal antibody; pan antibody 16B5) VH: QIQLVQSGPELKKPGETVKISCKASGYPFTYHGMDWVKQAPWGGLEWMGWINTYSGVPTYADDFKGRFAFSLETSVGTAYLQINNLKNEDTATYFCARRRDFTMDFWGQGTSVTVSS VL: NIVLSQSPSSLAVSPGEKVTMSCKSSQSLLNSRTRKNYLAWFQQKPGQSPKLLIYWASTRESGVPDRFTGSGSGTDFTLTISSVQAEDLAVYYCKQSYTLRTFGGGTNLEIKR				binds	no binding (tested: 0.2 µg/mL)	no binding (tested: 0.2 µg/mL)	binds	binds	binds	binds
